Target: C-terminal hydrophilic (cytoplasmic) domain of non-structural protein 4 from mouse hepatitis virus strain A59, wild type (mouse hepatitis virus strain A59)
Assay: SEC; Superdex75, 50 mM Tris-Cl pH 8.5, 300 mM NaCl (legend: 150 mM NaCl), no reducing agent, 0.5 mL/min; calibrated with marker proteins

For “C-terminal hydrophilic (cytoplasmic) domain of non-structural protein 4 from mouse hepatitis virus strain A59, wild type (domain or fragment)”, the stoichiometry N was 2.

Reference: publication PMC2703826
